Source: PMC9464592 (Nature, 2022)

T1: tag-free WDR59 (human, UniProt Q6PJI9 1-974)
T1 sequence: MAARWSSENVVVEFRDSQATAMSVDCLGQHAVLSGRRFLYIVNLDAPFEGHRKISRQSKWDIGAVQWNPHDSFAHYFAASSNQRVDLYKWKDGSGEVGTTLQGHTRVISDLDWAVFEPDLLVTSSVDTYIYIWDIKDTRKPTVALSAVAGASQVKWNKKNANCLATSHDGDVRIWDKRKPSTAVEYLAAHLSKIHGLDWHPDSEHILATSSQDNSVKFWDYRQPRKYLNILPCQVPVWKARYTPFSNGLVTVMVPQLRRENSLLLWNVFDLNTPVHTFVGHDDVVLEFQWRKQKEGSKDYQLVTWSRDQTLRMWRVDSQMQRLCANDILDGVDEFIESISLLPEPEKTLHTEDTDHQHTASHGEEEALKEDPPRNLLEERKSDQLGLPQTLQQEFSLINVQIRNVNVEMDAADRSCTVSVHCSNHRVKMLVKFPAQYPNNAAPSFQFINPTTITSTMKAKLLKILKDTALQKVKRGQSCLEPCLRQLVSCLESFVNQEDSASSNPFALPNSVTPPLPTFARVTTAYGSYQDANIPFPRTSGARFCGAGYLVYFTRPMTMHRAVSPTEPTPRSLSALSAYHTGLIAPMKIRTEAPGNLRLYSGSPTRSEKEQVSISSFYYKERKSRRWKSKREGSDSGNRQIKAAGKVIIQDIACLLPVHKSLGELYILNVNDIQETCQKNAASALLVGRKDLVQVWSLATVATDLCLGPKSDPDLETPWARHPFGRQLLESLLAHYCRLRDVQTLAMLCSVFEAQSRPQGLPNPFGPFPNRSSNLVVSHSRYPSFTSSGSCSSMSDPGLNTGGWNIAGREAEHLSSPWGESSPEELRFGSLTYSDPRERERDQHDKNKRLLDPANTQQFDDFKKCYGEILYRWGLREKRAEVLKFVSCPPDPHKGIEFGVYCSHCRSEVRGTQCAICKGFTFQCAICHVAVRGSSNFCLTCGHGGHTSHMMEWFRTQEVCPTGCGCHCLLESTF

B1: WDR24 ∆CTD (domain or fragment, human, UniProt Q96S15 1-700, looked up)
chain: MEKMSRVTTALGGSVLTGRTMHCHLDAPANAISVCRDAAQVVVAGRSIFKIYAIEEEQFVEKLNLRVGRKPSLNLSCADVVWHQMDENLLATAATNGVVVTWNLGRPSRNKQDQLFTEHKRTVNKVCFHPTEAHVLLSGSQDGFMKCFDLRRKDSVSTFSGQSESVRDVQFSIRDYFTFASTFENGNVQLWDIRRPDRCERMFTAHNGPVFCCDWHPEDRGWLATGGRDKMVKVWDMTTHRAKEMHCVQTIASVARVKWRPECRHHLATCSMMVDHNIYVWDVRRPFVPAAMFEEHRDVTTGIAWRHPHDPSFLLSGSKDSSLCQHLFRDASQPVERANPEGLCYGLFGDLAFAAKESLVAAESGRKPYTGDRRHPIFFKRKLDPAEPFAGLASSALSVFETEPGGGGMRWFVDTAERYALAGRPLAELCDHNAKVARELGRNQVAQTWTMLRIIYCSPGLVPTANLNHSVGKGGSCGLPLMNSFNLKDMAPGLGSETRLDRSKGDARSDTVLLDSSATLITNEDNEETEGSDVPADYLLGDVEGEEDELYLLDPEHAHPEDPECVLPQEAFPLRHEIVDTPPGPEHLQDKADSPHVSGSEADVASLAPVDSSFSLLSVSHALYDSRLPPDFFGVLVRDMLHFYAEQGDVQMAVSVLIVLGERVRKDIDEQTQEHWYTSYIDLLQRFRLWNVSNEVVKLS
B2: MIOS A560E (natural protein, human)
chain: MSGTKPDILWAPHHVDRFVVCDSELSLYHVESTVNSELKAGSLRLSEDSAATLLSINSDTPYMKCVAWYLNYDPECLLAVGQANGRVVLTSLGQDHNSKFKDLIGKEFVPKHARQCNTLAWNPLDSNWLAAGLDKHRADFSVLIWDICSKYTPDIVPMEKVKLSAGETETTLLVTKPLYELGQNDACLSLCWLPRDQKLLLAGMHRNLAIFDLRNTSQKMFVNTKAVQGVTVDPYFHDRVASFYEGQVAIWDLRKFEKPVLTLTEQPKPLTKVAWCPTRTGLLATLTRDSNIIRLYDMQHTPTPIGDETEPTIIERSVQPCDNYIASFAWHPTSQNRMIVVTPNRTMSDFTVFERISLAWSPITSLMWACGRHLYECTEEENDNSLEKDIATKMRLRALSRYGLDTEQVWRNHILAGNEDPQLKSLWYTLHFMKQYTEDMDQKSPGNKGSLVYAGIKSIVKSSLGMVESSRHNWSGLDKQSDIQNLNEERILALQLCGWIKKGTDVDVGPFLNSLVQEGEWERAAAVALFNLDIRRAIQILNEGASSEKGDLNLNVVAMELSGYTDEKNSLWREMCSTLRLQLNNPYLCVMFAFLTSETGSYDGVLYENKVAVRDRVAFACKFLSDTQLNRYIEKLTNEMKEAGNLEGILLTGLTKDGVDLMESYVDRTGDVQTASYCMLQGSPLDVLKDERVQYWIENYRNLLDAWRFWHKRAEFDIHRSKLDPSSKPLAQVFVSCNFCGKSISYSCSAVPHQGRGFSQYGVSGSPTKSKVTSCPGCRKPLPRCALCLINMGTPVSSCPGGTKSDEKVDLSKDKKLAQFNNWFTWCHNCRHGGHAGHMLSWFRDHAECPVSACTCKCMQLDTTGNLVPAETVQP
B3: N-terminally Flag-tagged MIOS (natural protein, human)
chain: MSGTKPDILWAPHHVDRFVVCDSELSLYHVESTVNSELKAGSLRLSEDSAATLLSINSDTPYMKCVAWYLNYDPECLLAVGQANGRVVLTSLGQDHNSKFKDLIGKEFVPKHARQCNTLAWNPLDSNWLAAGLDKHRADFSVLIWDICSKYTPDIVPMEKVKLSAGETETTLLVTKPLYELGQNDACLSLCWLPRDQKLLLAGMHRNLAIFDLRNTSQKMFVNTKAVQGVTVDPYFHDRVASFYEGQVAIWDLRKFEKPVLTLTEQPKPLTKVAWCPTRTGLLATLTRDSNIIRLYDMQHTPTPIGDETEPTIIERSVQPCDNYIASFAWHPTSQNRMIVVTPNRTMSDFTVFERISLAWSPITSLMWACGRHLYECTEEENDNSLEKDIATKMRLRALSRYGLDTEQVWRNHILAGNEDPQLKSLWYTLHFMKQYTEDMDQKSPGNKGSLVYAGIKSIVKSSLGMVESSRHNWSGLDKQSDIQNLNEERILALQLCGWIKKGTDVDVGPFLNSLVQEGEWERAAAVALFNLDIRRAIQILNEGASSEKGDLNLNVVAMALSGYTDEKNSLWREMCSTLRLQLNNPYLCVMFAFLTSETGSYDGVLYENKVAVRDRVAFACKFLSDTQLNRYIEKLTNEMKEAGNLEGILLTGLTKDGVDLMESYVDRTGDVQTASYCMLQGSPLDVLKDERVQYWIENYRNLLDAWRFWHKRAEFDIHRSKLDPSSKPLAQVFVSCNFCGKSISYSCSAVPHQGRGFSQYGVSGSPTKSKVTSCPGCRKPLPRCALCLINMGTPVSSCPGGTKSDEKVDLSKDKKLAQFNNWFTWCHNCRHGGHAGHMLSWFRDHAECPVSACTCKCMQLDTTGNLVPAETVQP

Columns and labels:
tag-free WDR59 [1] = molecular target: T1, tag-free WDR59; test: SEC
tag-free WDR59 [2] = molecular target: T1, tag-free WDR59; test: cryo-EM structure

Row | Binder | binding result (tag-free WDR59 [1]) | binding result (tag-free WDR59 [2])
1 | B1 | binds | –
2 | B2 | binds | –
3 | B3 | – | binds
